Laboratory results reported in patent publication US20120294797A1 (ALDERBIO, published 2012).

T1: Homo sapiens CGRP-alpha (Calcitonin Gene Related Peptide alpha) (Homo sapiens, C-terminal -NH2 as printed in the sequence (the text says "the N-terminal phenylalanine is amidated"))
T1 construct: Synthetic 37-residue peptide from American Peptides / Bachem; Coated directly on the plate in the recombinant-antibody ELISA; also called human CGRPα; CGRPα
T1 peptide: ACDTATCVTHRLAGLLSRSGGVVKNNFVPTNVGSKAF


Biological target: T1, Homo sapiens CGRP-alpha (Calcitonin …)
Experiment: ELISA: CGRPα coated on plate, antibody dilution series, anti-human IgG Fc-peroxidase detection
Protocol: To characterize recombinant expressed antibodies for their ability to bind to human-CGRPα, antibody-containing solutions were tested by ELISA. All incubations were done at room temperature. Briefly, Immulon IV plagtes (Thermo Scientific) were coated with a CGRPα containing solution ([…] in PBS) for 2 hours. CGRPα-coated plates were then washed three times in wash buffer (PBS, 0.05% Tween-20). The plates were then blocked using a blocking solution (PBS, 0.5% fish skin gelatin, 0.05% Tween-20) for approximately one hour. The blocking solution was then removed and the plates were then incubated with a dilution series of the antibody being tested for approximately one hour. At the end of this incubation, the plate was washed three times with wash buffer and further incubated with a secondary antibody containing solution (Peroxidase conjugated affinipure F(ab′)2 fragment goat anti-human IgG, Fc fragment specific (Jackson Immunoresearch) for approximately 45 minutes and washed three times. At that point a substrate solution (TMB peroxidase substrate, BioFx) and incubated for 3 to 5 minutes in the dark. The reaction was stopped by addition of a HCl containing solution (0.5M) and the plate was read at 450 nm in a plate-reader.

| Binder | binding result |
| --- | --- |
| Antibody Ab1 (antibody, human IgG1, kappa, N297A, V domains shown, Chimeric (rabbit variable regions, human gamma-1 and kappa constant regions), full length) VH: QSLEESGGRLVTPGTPLTLTCTVSGLDLSSYYMQWVRQAPGKGLEWIGVIGINDNTYYASWAKGRFTISRASSTTVDLKMTSLTTEDTATYFCARGDIWGPGTLVTVSS VL: QVLTQTASPVSAAVGSTVTINCQASQSVYDNNYLAWYQQKPGQPPKQLIYSTSTLASGVSSRFKGSGSGTQFTLTISDLECADAATYYCLGSYDCSSGDCFVFGGGTEVVVKR | binds |
| Antibody Ab7 (antibody, human IgG1, kappa, N297A, V domains shown, Chimeric (rabbit variable regions, human gamma-1 and kappa constant regions), full length) VH: QEQLKESGGRLVTPGTSLTLTCTVSGIDLSNHYMQWVRQAPGKGLEWIGVVGINGRTYYASWAKGRFTISRTSSTTVDLKMTRLTTEDTATYFCARGDIWGPGTLVTVSS VL: QVLTQTASPVSAAVGSTVTINCQASQSVYNYNYLAWYQQKPGQPPKQLIYSTSTLASGVSSRFKGSGSGTQFTLTISDVQCDDAATYYCLGSYDCSTGDCFVFGGGTEVVVKR | binds |
| Antibody Ab2 (antibody, human IgG1, kappa, N297A, Humanized, full length, human gamma-1 and kappa constant regions) heavy: not shown light: QVLTQSPSSLSASVGDRVTINCQASQSVYDNNYLAWYQQKPGKVPKQLIYSTSTLASGVPSRFSGSGSGTDFTLTISSLQPEDVATYYCLGSYDCSSGDCFVFGGGTKVEIKRTVAAPSVFIFPPSDEQLKSGTASVVCLLNNFYPREAKVQWKVDNALQSGNSQESVTEQDSKDSTYSLSSTLTLSKADYEKHKVYACEVTHQGLSSPVTKSFNRGEC | binds |
| Antibody Ab12 (antibody, human IgG1, kappa, N297A, V domains shown, Humanized, full length, human gamma-1 and kappa constant regions) VH: EVQLVESGGGLVQPGGSLRLSCAVSGIDVTNYYMQWVRQAPGKGLEWVGVIGVNGKRYYASWAKGRFTISRDNSKTTVYLQMNSLRAEDTAVYFCARGDIWGQGTLVTVSS VL: QVLTQSPSSLSASVGDRVTINCRASQSVYYNNYLAWYQQKPGKVPKQLIYSTSTLASGVPSRFSGSGSGTDFTLTISSLQPEDVATYYCLGSYDCSNGDCFVFGGGTKVEIKR | binds |
| Antibody Ab8 (antibody, human IgG1, kappa, N297A, V domains shown, Humanized, full length, human gamma-1 and kappa constant regions) VH: EVQLVESGGGLVQPGGSLRLSCAVSGIDLSNHYMQWVRQAPGKGLEWVGVVGINGRTYYASWAKGRFTISRDNSKTTVYLQMNSLRAEDTAVYFCARGDIWGQGTLVTVSS VL: QVLTQSPSSLSASVGDRVTINCQASQSVYNYNYLAWYQQKPGKVPKQLIYSTSTLASGVPSRFSGSGSGTDFTLTISSLQPEDVATYYCLGSYDCSTGDCFVFGGGTKVEIKR | binds |
| Antibody Ab10 (antibody, human IgG1, kappa, N297A, Humanized, full length, human gamma-1 and kappa constant regions) heavy: not shown light: QVLTQSPSSLSASVGDRVTINCQASQNVYNNNYLAWYQQKPGKVPKQLIYSTSTLASGVPSRFSGSGSGTDFTLTISSLQPEDVATYYCLGSYDCSRGDCFVFGGGTKVEIKRTVAAPSVFIFPPSDEQLKSGTASVVCLLNNFYPREAKVQWKVDNALQSGNSQESVTEQDSKDSTYSLSSTLTLSKADYEKHKVYACEVTHQGLSSPVTKSFNRGEC | binds |
| Antibody Ab3 (antibody, human IgG1, kappa, N297A, Humanized, full length; same variable regions as Ab2, heavy constant region differs (KVDARV instead of KVDKRV)) heavy: not shown light: QVLTQSPSSLSASVGDRVTINCQASQSVYDNNYLAWYQQKPGKVPKQLIYSTSTLASGVPSRFSGSGSGTDFTLTISSLQPEDVATYYCLGSYDCSSGDCFVFGGGTKVEIKRTVAAPSVFIFPPSDEQLKSGTASVVCLLNNFYPREAKVQWKVDNALQSGNSQESVTEQDSKDSTYSLSSTLTLSKADYEKHKVYACEVTHQGLSSPVTKSFNRGEC | binds |
| Antibody Ab14 (antibody, human IgG1, kappa, N297A, Humanized, full length; same variable regions as Ab10, heavy constant region differs (KVDARV instead of KVDKRV)) heavy: not shown light: QVLTQSPSSLSASVGDRVTINCQASQNVYNNNYLAWYQQKPGKVPKQLIYSTSTLASGVPSRFSGSGSGTDFTLTISSLQPEDVATYYCLGSYDCSRGDCFVFGGGTKVEIKRTVAAPSVFIFPPSDEQLKSGTASVVCLLNNFYPREAKVQWKVDNALQSGNSQESVTEQDSKDSTYSLSSTLTLSKADYEKHKVYACEVTHQGLSSPVTKSFNRGEC | binds |
| Antibody Ab6 (antibody, human IgG1, kappa, N297A, Humanized, full length; same variable regions as Ab5, heavy constant region differs (KVDARV instead of KVDKRV)) heavy: not shown light: QVLTQSPSSLSASVGDRVTINCQASQSVYHNTYLAWYQQKPGKVPKQLIYDASTLASGVPSRFSGSGSGTDFTLTISSLQPEDVATYYCLGSYDCTNGDCFVFGGGTKVEIKRTVAAPSVFIFPPSDEQLKSGTASVVCLLNNFYPREAKVQWKVDNALQSGNSQESVTEQDSKDSTYSLSSTLTLSKADYEKHKVYACEVTHQGLSSPVTKSFNRGEC | binds |

The remaining lines, values ahead:

| binding result | Binder |
| --- | --- |
| binds | Antibody Ab9 (antibody, human IgG1, kappa, N297A, V domains shown, Chimeric (rabbit variable regions, human gamma-1 and kappa constant regions), full length) VH: QSLEESGGRLVTPGTPLTLTCTVSGIGLSSYYMQWVRQSPGRGLEWIGVIGSDGKTYYATWAKGRFTISKTSSTTVDLRMASLTTEDTATYFCTRGDIWGPGTLVTVSS VL: QVLTQTPSPVSAAVGSTVTINCQASQNVYNNNYLAWYQQKPGQPPKQLIYSTSTLASGVSSRFRGSGSGTQFTLTISDVQCDDAATYYCLGSYDCSRGDCFVFGGGTEVVVKR |
| binds | Antibody Ab4 (antibody, human IgG1, kappa, N297A, V domains shown, Chimeric (rabbit variable regions, human gamma-1 and kappa constant regions), full length) VH: QSLEESGGRLVTPGTPLTLTCSVSGIDLSGYYMNWVRQAPGKGLEWIGVIGINGATYYASWAKGRFTISKTSSTTVDLKMTSLTTEDTATYFCARGDIWGPGTLVTVSS VL: QVLTQTPSPVSAAVGSTVTINCQASQSVYHNTYLAWYQQKPGQPPKQLIYDASTLASGVPSRFSGSGSGTQFTLTISGVQCNDAAAYYCLGSYDCTNGDCFVFGGGTEVVVKR |
| binds | Antibody Ab11 (antibody, human IgG1, kappa, N297A, V domains shown, Chimeric (rabbit variable regions, human gamma-1 and kappa constant regions), full length) VH: QSLEESGGRLVTPGGSLTLTCTVSGIDVTNYYMQWVRQAPGKGLEWIGVIGVNGKRYYASWAKGRFTISKTSSTTVDLKMTSLTTEDTATYFCARGDIWGPGTLVTVSS VL: QVLTQTASPVSPAVGSTVTINCRASQSVYYNNYLAWYQQKPGQPPKQLIYSTSTLASGVSSRFKGSGSGTQFTLTISDVQCDDAATYYCLGSYDCSNGDCFVFGGGTEVVVKR |
| binds | Antibody Ab5 (antibody, human IgG1, kappa, N297A, Humanized, full length, human gamma-1 and kappa constant regions) heavy: not shown light: QVLTQSPSSLSASVGDRVTINCQASQSVYHNTYLAWYQQKPGKVPKQLIYDASTLASGVPSRFSGSGSGTDFTLTISSLQPEDVATYYCLGSYDCTNGDCFVFGGGTKVEIKRTVAAPSVFIFPPSDEQLKSGTASVVCLLNNFYPREAKVQWKVDNALQSGNSQESVTEQDSKDSTYSLSSTLTLSKADYEKHKVYACEVTHQGLSSPVTKSFNRGEC |
